Reference: publication PMC10521137

Molecular target: Rad53 FHA1 domain, 1-165 (UniProt P22216)
Assay: biotin-peptide streptavidin pulldown, Coomassie stain
Conditions: reference: unphosphorylated peptide (peptide 1); sites T402

binding against the reference: gained
Substance: Pol1 (catalytic subunit of DNA polymerase alpha) 393-412 (from UniProt P13382) pT402 peptide (peptide 2)
